From the supplement of paper PMC10126150
± gives the standard deviation of the averaged measurements.

system: ATP; experiment: switch fluorescence ratio, 500 uM ATP over buffer (Cy3 cluster intensity, sum of 5 cycles each) (fold (ratio)); higher = stronger signal-on switching upon ATP binding; sequences stand for … in TCGTCGGCAGCGTCAGATGTGTATAAGAGACAGTTTTTTTTTTTTTTTTTTTTTTTTT…TC; details: aptamer strand: ATP DNA aptamer (quencher-CACCTGGGGGAGTATTGCGGAGGAAGG + anchor), 100 nM annealed; ATP concentration: 500 uM
How it was run: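 Five buffer/ATP imaging cycles were run on Cy3-labelled switching-strand clusters on a modified Illumina MiSeq flow-cell, with NaOH stripping and re-annealing between cycles. In each cycle, clusters annealed to 100 nM quencher-labelled ATP aptamer were imaged in selection buffer, then after 15 min with 500 uM ATP at 22 °C. Per cluster, the fluorescence ratio is summed target-cycle over summed buffer-cycle Cy3 intensity, averaged per switch-domain sequence. Only clusters within 100-1000 RFU were kept.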
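Note: ATP exposure 15 min at 22 °C before imaging.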

Sequence | switch fluorescence ratio
CCTGTGAGGT | 1.01 ± 0.045
GCTACGGTAT | 1.13 ± 0.07
GGGATGGACC | 1 ± 0.018
AGAAATATAT | 1.23 ± 0.35
TTGAGCCTCC | 1.2 ± 0.15
GTTTGGCTTT | 1.015 ± 0.0012
AGAAATGATA | 1.001 ± 0.0019
AAACGGATGC | 0.9573 ± 0.0092
ATTAATGGGA | 0.9986 ± 0.0061
ATTGATTAGA | 0.99 ± 0.043
GAGGGTGTGT | 0.979 ± 0.038
CGTCGTGACA | 1.03 ± 0.029
GGATGCGTG | 0.985 ± 0.059
TATTAGGTGT | 1.04 ± 0.04
TTTAGCATTT | 0.997 ± 0.014
CCTGTTAGCT | 1.15 ± 0.076
TCATTATGGA | 0.989 ± 0.014
GGGGTAAGAT | 0.963 ± 0.054
AGTTGAAGGA | 0.986 ± 0.027
ACAGTGCGCG | 1.03 ± 0.083
TTTGAGGATT | 1 ± 0.027
AACTATGAAC | 1.03 ± 0.029
GCTATGGGCG | 1.03 ± 0.033

Sequence | switch fluorescence ratio
GAATAAAAGG | 0.973 ± 0.019
GATGGGGTAG | 0.994 ± 0.039
ACTGGGGCCA | 0.972 ± 0.047
CCTTGGGTTG | 1.03 ± 0.032
AGAGTGAGAG | 0.9931 ± 0.0056
ACGTCTACGC | 1.101 ± 0.0031
GAGTTCCCGG | 1 ± 0.011
TTAGAGTACG | 1.036 ± 0.0075
ATCATTGCTG | 0.949 ± 0.056
TACTCGGCTC | 1.66 ± 0.11
TGGAGAAATT | 0.952 ± 0.13
GTTTAGGGGG | 0.994 ± 0.018
TTAATTGTAT | 0.992 ± 0.034
TTCCTAAAGT | 0.9622 ± 0.0039
GGGCCAGGGG | 1.21 ± 0.067
GTGTCCACAG | 1 ± 0.014
TTTATAGTTA | 0.979 ± 0.039
CCTACGGAAG | 2.07 ± 0.045
AGGGGTTGGG | 0.992 ± 0.061
ACGTCCATTT | 1.06 ± 0.011
TCATGTAAGT | 0.997 ± 0.02
GAGCATTGGA | 0.992 ± 0.036
AAGGGCAGTT | 0.97609 ± 0.00084

Sequence | switch fluorescence ratio
ATTGATTC | 0.9868 ± 0.0031
TAAGTTAGAG | 0.97 ± 0.024
TTGGGGGCAG | 1.01 ± 0.018
CTGAATACGG | 1.115 ± 0.01
GGATCATTTA | 1.03 ± 0.042
AAGGGGTACA | 1.01 ± 0.02
GCTGTATGCA | 0.976 ± 0.012
TGACTAGGGA | 0.992 ± 0.021
GGTCGAAATT | 1.15 ± 0.31
ATATAATCAA | 0.98075 ± 0.00037
TCGGTGGGGT | 0.982 ± 0.0061
TTGGCGCTGG | 0.993 ± 0.026
TTTTTGCATA | 1.25 ± 0.26
TTGAATTTAA | 0.981 ± 0.025
GAAGTAAAGT | 1.06 ± 0.15
GCGTGAGCAC | 0.9745 ± 0.0089
CAGGGAGAAT | 1.01 ± 0.019
TAGTAGGAGG | 0.9721 ± 0.0061
TGGGAACGCG | 1.003 ± 0.0076
GAAGTAAGCT | 0.983 ± 0.026
AAATAATTGT | 1.019 ± 0.01
TCAAGTTGGC | 0.998 ± 0.09
TTAGTATTAC | 1.05 ± 0.029

Sequence | switch fluorescence ratio
GAAGCCCACG | 1.09 ± 0.019
AGGATTTT | 0.955 ± 0.066
TTGTAGTTAT | 1.09 ± 0.16
GTGACGGGGC | 1.02 ± 0.058
CCATGTTTGT | 1.01 ± 0.028
CTGTATGAGT | 0.9879 ± 0.0037
TAGTCATTAC | 1.12 ± 0.12
TACTACCTGG | 1.3 ± 0.25
TTATTGCACG | 1.07 ± 0.068
GGCATTGGGT | 1.0068 ± 0.00028
CCAGTTACGG | 1.032 ± 0.01
GGAATATGC | 1.13 ± 0.1
CCTGTGTTCG | 1 ± 0.025
GATGCGGGAC | 1.34 ± 0.07
ATAGGGCTGG | 0.968 ± 0.024
GGTAATGCGG | 1.01 ± 0.041
AAGGGTTGGT | 0.991 ± 0.028
TAATTTGGA | 0.9652 ± 0.004
TTGGGCAGAG | 0.993 ± 0.043
AGAAGCCCCC | 1.02 ± 0.048
GGGCATGTCG | 1.13 ± 0.013
ATCGTTAATT | 0.981 ± 0.041
CGTACGGCAG | 0.9978 ± 0.0052

Sequence | switch fluorescence ratio
CTGGCATTTT | 0.9936 ± 0.0054
CACCTTTACA | 1.16 ± 0.034
GGTTAGGCAT | 1 ± 0.0058
CAGGGGGGTG | 1.01 ± 0.051
GAGTGGGTTG | 0.982 ± 0.0092
CGGTTTTTT | 1 ± 0.021
AATCTGGGTA | 0.991 ± 0.016
TAAAGCTGAT | 1.01 ± 0.012
CACCAGGGCA | 1.54 ± 0.066
TCACCGATTC | 1.11 ± 0.024
TGGTATGGTA | 0.9969 ± 0.0099
AAAATAGGCC | 1.02 ± 0.013
GGCTATTTTC | 0.991 ± 0.051
TGTGGTGGCA | 1 ± 0.058
CGGGAGAGAC | 1.013 ± 0.0025
TTGTTTGAGG | 0.9815 ± 0.004
GGGGCCCACG | 1.002 ± 0.006
ATAGGAGGTC | 1.01 ± 0.013
TAAAATTGTT | 0.991 ± 0.052
GGCAATTCAG | 1.07 ± 0.019
TAGCACTGAG | 1.05 ± 0.043
ACAGTCTATT | 1.02 ± 0.043
TGGTTGCAGC | 1 ± 0.055

Sequence | switch fluorescence ratio
GGGTATGCGT | 0.975 ± 0.026
GAACTAGCGC | 1 ± 0.019
GCGATATGTG | 1.013 ± 0.0073
TTTAGGTAGG | 1 ± 0.02
ATTTAATTCT | 0.9981 ± 0.0077
GGGCGGGGCT | 0.994 ± 0.016
ATTTGGTTGT | 0.958 ± 0.021
TTTGAGTGGG | 0.994 ± 0.025
GGTCTGTTTT | 0.992 ± 0.022
AGTCGGGCGG | 1 ± 0.026
TTTGGTGTAG | 1.02 ± 0.015
TAAGAGTTGG | 0.999 ± 0.018
CTGAATGGGT | 0.998 ± 0.016
TAGAATTGAG | 0.984 ± 0.022
ACTCAATTAT | 1.02 ± 0.042
CGGCTAGGTC | 1.03 ± 0.012
AAAATAATTA | 0.981 ± 0.012
CTGTGGGGGC | 1.01 ± 0.016
CTGGGTAATT | 1.04 ± 0.059
CGATATAAGA | 0.998 ± 0.054
AAGGAAATTA | 1.01 ± 0.058
ATTTTCGGGT | 0.9766 ± 0.0023
GTGTGTTCTT | 1.014 ± 0.008

Sequence | switch fluorescence ratio
CGTTTGGACA | 0.9893 ± 0.0051
TTTCTCGGAG | 1.08 ± 0.084
CTCATACCTG | 1.05 ± 0.021
TGAGGGCTAG | 1 ± 0.015
ATGGGTATTT | 1.02 ± 0.035
AGGACTTAGG | 1.06 ± 0.056
CGAAGTACCG | 1.08 ± 0.011
TTATTTGGAG | 0.986 ± 0.025
GGCCTCCGGT | 1.09 ± 0.018
GCCAAGGGAT | 0.9721 ± 0.0082
TATCGTCTGG | 0.981 ± 0.015
TGGATCTGCC | 1.036 ± 0.0056
ATGGGTTGGT | 0.981 ± 0.016
GGGGTATAGT | 0.98 ± 0.021
AATGATTTTG | 0.9765 ± 0.0065
ATAATACGGG | 1.03 ± 0.017
TGGGTATCGT | 0.977 ± 0.029
TTCTTTAGAG | 0.987 ± 0.055
GAGCTACGGG | 1.01 ± 0.033
